B1: Δ49-61: AnxA2 deletion of aa 49-61 (protein)
chain: MSTVHEILCKLSLEGDHSTPPSAYGSVKAYTNFDAERDALNIETAIKTNRSNAQRQDIAFAYQRRTKKELASALKSALSGHLETVILGLLKTPAQYDASELKASMKGLGTDEDSLIEIICSRTNQELQEINRVYKEMYKTDLEKDIISDTSGDFRKLMVALAKGRRAEDGSVIDYELIDQDARDLYDAGVKRKGTDVPKWISIMTERSVPHLQKVFDRYKSYSPYDMLESIRKEVKGDLENAFLNLVQCIQNKPLYFADRLYDSMKGKGTRDKVLIRIMVSRSEVDMLKIRSEFKRKYGKSLYYYIQQDTKGDYQKALLYLCGGDDYPYDVPDYA
B2: ΔR2: AnxA2 deletion of aa 109-192 (protein)
chain: MSTVHEILCKLSLEGDHSTPPSAYGSVKAYTNFDAERDALNIETAIKTKGVDEVTIVNILTNRSNAQRQDIAFAYQRRTKKELASALKSALSGHLETVILGLLKTPAQQDARDLYDAGVKRKGTDVPKWISIMTERSVPHLQKVFDRYKSYSPYDMLESIRKEVKGDLENAFLNLVQCIQNKPLYFADRLYDSMKGKGTRDKVLIRIMVSRSEVDMLKIRSEFKRKYGKSLYYYIQQDTKGDYQKALLYLCGGDDYPYDVPDYA
B3: ΔR3: AnxA2 deletion of aa 193-268 (protein)
chain: MSTVHEILCKLSLEGDHSTPPSAYGSVKAYTNFDAERDALNIETAIKTKGVDEVTIVNILTNRSNAQRQDIAFAYQRRTKKELASALKSALSGHLETVILGLLKTPAQYDASELKASMKGLGTDEDSLIEIICSRTNQELQEINRVYKEMYKTDLEKDIISDTSGDFRKLMVALAKGRRAEDGSVIDYELIDYFADRLYDSMKGKGTRDKVLIRIMVSRSEVDMLKIRSEFKRKYGKSLYYYIQQDTKGDYQKALLYLCGGDDYPYDVPDYA
B4: Δ37-48: AnxA2 deletion of aa 37-48 (protein)
chain: MSTVHEILCKLSLEGDHSTPPSAYGSVKAYTNFDAEKGVDEVTIVNILTNRSNAQRQDIAFAYQRRTKKELASALKSALSGHLETVILGLLKTPAQYDASELKASMKGLGTDEDSLIEIICSRTNQELQEINRVYKEMYKTDLEKDIISDTSGDFRKLMVALAKGRRAEDGSVIDYELIDQDARDLYDAGVKRKGTDVPKWISIMTERSVPHLQKVFDRYKSYSPYDMLESIRKEVKGDLENAFLNLVQCIQNKPLYFADRLYDSMKGKGTRDKVLIRIMVSRSEVDMLKIRSEFKRKYGKSLYYYIQQDTKGDYQKALLYLCGGDDYPYDVPDYA
B5: ΔR4: AnxA2 deletion of aa 269-339 (protein)
chain: MSTVHEILCKLSLEGDHSTPPSAYGSVKAYTNFDAERDALNIETAIKTKGVDEVTIVNILTNRSNAQRQDIAFAYQRRTKKELASALKSALSGHLETVILGLLKTPAQYDASELKASMKGLGTDEDSLIEIICSRTNQELQEINRVYKEMYKTDLEKDIISDTSGDFRKLMVALAKGRRAEDGSVIDYELIDQDARDLYDAGVKRKGTDVPKWISIMTERSVPHLQKVFDRYKSYSPYDMLESIRKEVKGDLENAFLNLVQCIQNKPLYPYDVPDYA
B6: ΔR1: AnxA2 deletion of aa 37-108 (protein)
chain: MSTVHEILCKLSLEGDHSTPPSAYGSVKAYTNFDAEYDASELKASMKGLGTDEDSLIEIICSRTNQELQEINRVYKEMYKTDLEKDIISDTSGDFRKLMVALAKGRRAEDGSVIDYELIDQDARDLYDAGVKRKGTDVPKWISIMTERSVPHLQKVFDRYKSYSPYDMLESIRKEVKGDLENAFLNLVQCIQNKPLYFADRLYDSMKGKGTRDKVLIRIMVSRSEVDMLKIRSEFKRKYGKSLYYYIQQDTKGDYQKALLYLCGGDDYPYDVPDYA

Target: PCSK9-V5 (Homo sapiens, UniProt Q8NBP7)
Test: Far Western blot with PCSK9-V5 conditioned media
Format: binding
Set-up: made in house; host or cells: CHO-K1 cells (conditioned medium, not purified)
Settings: lysates of cells overexpressing the construct
Experimental: Lysates (20 to 30 μg protein), media or purified AnxA2-(His)6 were heated in reducing or non-reducing Laemmli sample buffer, resolved by SDS-PAGE on 8% glycine gels and electro-transferred onto nitrocellulose membranes (GE Healthcare). Following 1 h incubation in 5% skim milk in Tris-Buffered Saline-0.1% Tween (TBST), membranes where incubated with conditioned media of CHO-K1 cells overexpressing either an empty vector (pIRES-V5), PC5A-V5, CHRD-V5, pIRES-D374Y, PCSK9-V5 or its V5-tagged mutants, or incubated with purified AnxA2-(His)6 for 3 h at room temperature. […] For competition experiments, 10 μg of His-tagged PCSK9 or CHRD were added to the PCSK9-V5 media before Far Western blotting. For PCSK9 binding requirements with the ˜33 kDa protein, 1M NaCl, 10 mg/ml heparin, 1M NaCl+10 mg/ml heparin, or 100 mM EDTA were added to the PCSK9-V5 conditioned media used for Far Western blotting.
Wild type human Annexin A2 (AnxA2) (ATCC #MGC-2257) and Annexin A1 (AnxA1) (ATCC #MGC-5095) were purchased from ATCC and subcloned into NheI/SacI digested pIRES2-EGFP vector. An HA epitope ([…]) was fused by PCR mutagenesis at the C-terminus of both AnxA1 and AnxA2. Two-steps PCRs were performed on AnxA2 cDNA to introduce point mutations (N62Q; S64A; K28S+D34N+E36S; R37S+E43H+K47M; 77RRTKK (SEQ ID NO: 26)>AATAK (SEQ ID NO: 27); ^77RRTKK (SEQ ID NO: 26)>AATAA (SEQ ID NO: 28); ^77RRTKKELASALK (SEQ ID NO: 29)>^77AATAAELASALA (SEQ ID NO: 30); 80KKELA (SEQ ID NO: 31)>GKPLD (SEQ ID NO: 32)), or amino acid (aa) deletions (Δ2-24, aa 2-24; ΔR1, aa 37-108; ΔR2, aa 109-192; ΔR3, aa 193-268; ΔR4, aa 269-339; Δ25-36, aa 25-36; Δ37-48, aa 37-48; Δ49-61, aa 49-61; Δ62-75, aa 62-75; Δ37-66, aa 37-66; Δ74-88, aa 74-88; Δ82-88, aa 82-88; Δ89-101, aa 89-101; Δ102-108, aa 102-108) into pIRES2-AnxA2-EGFP vector (see Table 3 above). In addition, using PCR, the AnxA2 segment aa 49-75 was swapped with the corresponding AnxA1 segment aa 58-84 [AnxA1 (aa 58-84)>AnxA2 (aa 49-75)]. Similar swaps were performed for the corresponding AnxA2 sequence with AnxA1 (AnxA1>AnxA2: aa 25-27; aa 28-30; aa 31-33; aa 34-36; aa 37-39; aa 40-42; aa 43-45; aa 46-48; aa 49-75; aa 49-61; aa 62-75). All final cDNA constructs were verified by DNA sequencing.

Chain of PCSK9-V5 (Q8NBP7 153-692): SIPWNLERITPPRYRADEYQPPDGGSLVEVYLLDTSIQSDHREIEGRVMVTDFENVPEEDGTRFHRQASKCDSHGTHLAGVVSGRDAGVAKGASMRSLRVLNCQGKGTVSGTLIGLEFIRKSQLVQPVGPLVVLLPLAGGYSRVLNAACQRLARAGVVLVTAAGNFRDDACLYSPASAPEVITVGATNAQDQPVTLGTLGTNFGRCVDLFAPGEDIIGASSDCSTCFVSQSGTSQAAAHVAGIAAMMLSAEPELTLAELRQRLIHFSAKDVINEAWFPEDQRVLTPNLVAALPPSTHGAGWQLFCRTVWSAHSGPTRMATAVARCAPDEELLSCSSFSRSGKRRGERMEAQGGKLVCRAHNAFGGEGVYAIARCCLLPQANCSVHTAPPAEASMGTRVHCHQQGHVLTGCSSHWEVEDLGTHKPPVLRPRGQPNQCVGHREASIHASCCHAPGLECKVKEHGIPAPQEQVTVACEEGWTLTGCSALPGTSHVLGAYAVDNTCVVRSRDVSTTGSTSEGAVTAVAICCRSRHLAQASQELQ
Chain of PCSK9-V5 (Q8NBP7 31-152 partner limits assumed): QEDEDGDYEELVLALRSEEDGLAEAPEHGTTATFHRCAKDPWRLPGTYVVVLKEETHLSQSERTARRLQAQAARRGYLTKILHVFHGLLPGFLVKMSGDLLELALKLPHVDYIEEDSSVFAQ

PCSK9-V5 binding by Far Western blot	Molecule
does not affect binding to PCSK9	Δ2-24: AnxA2 deletion of aa 2-24
abolished PCSK9 binding	B1
had no major effect	B2
had no major effect	B3
abolished PCSK9 binding	B4
had no major effect	B5
completely abrogated the interaction	B6

— patent US8673850B2, “PCSK9 inhibitors and methods of use thereof” (Institut de Recherches Cliniques de Montreal, priority 2008, dated 2014)
